Assay results published in patent publication CN111253486A (ZAI LAB SHANGHAI CO LTD, dated 2020).
Values belong to the binder of their own block, whether it stands above or below them.

Biological target: T1, human PD-1-his (recombinant human PD-1 extracellular domain with C-terminal polyhistidine tag) (human, UniProt Q15116 25-170)
T1 construct: extracellular domain; also called 人PD-1-his; hPD-1蛋白
Experiment: SPR (Biacore 8K), antibody captured, antigen injected

T1 sequence (Q15116 25-170): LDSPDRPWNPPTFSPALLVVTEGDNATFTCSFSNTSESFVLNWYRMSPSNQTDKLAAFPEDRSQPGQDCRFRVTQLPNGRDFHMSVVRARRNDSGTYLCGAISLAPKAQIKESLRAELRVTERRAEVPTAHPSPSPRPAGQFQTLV

Kd: 1.16 nM
koff: 0.000198 s⁻¹
kon: 171000 M⁻¹ s⁻¹
B1: murine anti-PD-1 antibody 31G1E10 (antibody, V domains shown)
VH: EVKLVESGGGLVKPGGSLKLSCAASGFTFSSYGMSWVRQTPEKRLEWVATISGGGRDTYYPDSVKGRFTISRDNAKNNLYLQMNNLRSEDTALYYCARQRDSAWFAHWGQGTRVTVSA
VL: not shown

Kd: 2.43 nM
koff: 0.000295 s⁻¹
kon: 122000 M⁻¹ s⁻¹
B2: murine anti-PD-1 antibody 56B3C11 (antibody, V domains shown)
VH: EVMLVESGGGLVQPGGSLKLSCAASGFTFNSYTMSWVRQTPEKRLEWVAYISFGGGDTYYPDTVKGRFTISRDNAKNTLYLQMNSLKSEDTAMYYCARQGNYEGAPFAYWGQGTLVTVSA
VL: DIQMTQTTSSLSASLGDRVTISCRASQDISNFLNWYQLKPDGTIKLLIYYTSRLHSGVPSRFSGSGSGTDYSLTITDLEQEDIATYLCQQGDMIPWTFGGGTKLEIK
